Measurements reported in patent publication US20260001928A1 (CORTERIA PHARMACEUTICALS, priority 2022, published 2026).
*1 amine or outer side, *2 acyl side, *3 side chain or, on linkers, in order; H or OH if unused. Where no end group is shown, it is not given here. Side-chain parts run from the residue outwards. [ ]: non-standard residue; d: D form. The star is where a group is joined. C18 diacid = O=C(O)CCCCCCCCCCCCCCCCC(=O)*; C16 diacid = O=C(O)CCCCCCCCCCCCCCC(=O)*; γGlu = O=C(O)[C@H](CCC(=O)[*:2])N[*:1]; αMeL = CC(C)C[C@](C)(N)C(=O)O; AEEA = NCCOCCOCC(=O)O; Aib = CC(C)(N)C(=O)O

T1: CRF1R receptor (UniProt P34998 24-415, limits assumed)
T1 sequence (looked up): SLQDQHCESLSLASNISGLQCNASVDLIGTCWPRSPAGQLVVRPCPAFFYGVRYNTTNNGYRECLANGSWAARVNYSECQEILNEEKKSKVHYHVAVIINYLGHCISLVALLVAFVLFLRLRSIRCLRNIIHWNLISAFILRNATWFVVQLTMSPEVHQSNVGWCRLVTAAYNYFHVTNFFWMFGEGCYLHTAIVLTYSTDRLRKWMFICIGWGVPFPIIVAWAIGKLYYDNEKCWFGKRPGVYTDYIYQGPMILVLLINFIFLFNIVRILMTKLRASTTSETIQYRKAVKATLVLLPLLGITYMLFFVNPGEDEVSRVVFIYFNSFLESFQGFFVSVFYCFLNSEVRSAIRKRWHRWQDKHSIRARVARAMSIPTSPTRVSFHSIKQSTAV

B1: SEQ ID NO 26 (peptide)
peptide: Ac-IVLSLDVPIKLK([AEEA-AEEA-γGlu-γGlu-C18 diacid])Q[Aib]LLKQERQKKQREQAEKN[Aib]QILEQV-NH2
SMILES: CC[C@H](C)[C@H](NC(C)=O)C(=O)N[C@H](C(=O)N[C@@H](CC(C)C)C(=O)N[C@@H](CO)C(=O)N[C@@H](CC(C)C)C(=O)N[C@@H](CC(=O)O)C(=O)N[C@H](C(=O)N1CCC[C@H]1C(=O)N[C@H](C(=O)N[C@@H](CCCCN)C(=O)N[C@@H](CC(C)C)C(=O)N[C@@H](CCCCNC(=O)COCCOCCNC(=O)COCCOCCNC(=O)CC[C@H](NC(=O)CC[C@H](NC(=O)CCCCCCCCCCCCCCCCC(=O)O)C(=O)O)C(=O)O)C(=O)N[C@@H](CCC(N)=O)C(=O)NC(C)(C)C(=O)N[C@@H](CC(C)C)C(=O)N[C@@H](CC(C)C)C(=O)N[C@@H](CCCCN)C(=O)N[C@@H](CCC(N)=O)C(=O)N[C@@H](CCC(=O)O)C(=O)N[C@@H](CCCNC(=N)N)C(=O)N[C@@H](CCC(N)=O)C(=O)N[C@@H](CCCCN)C(=O)N[C@@H](CCCCN)C(=O)N[C@@H](CCC(N)=O)C(=O)N[C@@H](CCCNC(=N)N)C(=O)N[C@@H](CCC(=O)O)C(=O)N[C@@H](CCC(N)=O)C(=O)N[C@@H](C)C(=O)N[C@@H](CCC(=O)O)C(=O)N[C@@H](CCCCN)C(=O)N[C@@H](CC(N)=O)C(=O)NC(C)(C)C(=O)N[C@@H](CCC(N)=O)C(=O)N[C@H](C(=O)N[C@@H](CC(C)C)C(=O)N[C@@H](CCC(=O)O)C(=O)N[C@@H](CCC(N)=O)C(=O)N[C@H](C(N)=O)C(C)C)[C@@H](C)CC)[C@@H](C)CC)C(C)C)C(C)C
B2: SEQ ID NO 97 (peptide)
peptide: Ac-IVLSLDVPIKLK([AEEA-AEEA-γGlu-C18 diacid])KILLEQEKQKKQREQAETN[Aib]QILAQV-NH2
SMILES: CC[C@H](C)[C@H](NC(C)=O)C(=O)N[C@H](C(=O)N[C@@H](CC(C)C)C(=O)N[C@@H](CO)C(=O)N[C@@H](CC(C)C)C(=O)N[C@@H](CC(=O)O)C(=O)N[C@H](C(=O)N1CCC[C@H]1C(=O)N[C@H](C(=O)N[C@@H](CCCCN)C(=O)N[C@@H](CC(C)C)C(=O)N[C@@H](CCCCNC(=O)COCCOCCNC(=O)COCCOCCNC(=O)CC[C@H](NC(=O)CCCCCCCCCCCCCCCCC(=O)O)C(=O)O)C(=O)N[C@@H](CCCCN)C(=O)N[C@H](C(=O)N[C@@H](CC(C)C)C(=O)N[C@@H](CC(C)C)C(=O)N[C@@H](CCC(=O)O)C(=O)N[C@@H](CCC(N)=O)C(=O)N[C@@H](CCC(=O)O)C(=O)N[C@@H](CCCCN)C(=O)N[C@@H](CCC(N)=O)C(=O)N[C@@H](CCCCN)C(=O)N[C@@H](CCCCN)C(=O)N[C@@H](CCC(N)=O)C(=O)N[C@@H](CCCNC(=N)N)C(=O)N[C@@H](CCC(=O)O)C(=O)N[C@@H](CCC(N)=O)C(=O)N[C@@H](C)C(=O)N[C@@H](CCC(=O)O)C(=O)N[C@H](C(=O)N[C@@H](CC(N)=O)C(=O)NC(C)(C)C(=O)N[C@@H](CCC(N)=O)C(=O)N[C@H](C(=O)N[C@@H](CC(C)C)C(=O)N[C@@H](C)C(=O)N[C@@H](CCC(N)=O)C(=O)N[C@H](C(N)=O)C(C)C)[C@@H](C)CC)[C@@H](C)O)[C@@H](C)CC)[C@@H](C)CC)C(C)C)C(C)C
B3: SEQ ID NO 20 (peptide)
peptide: Ac-IVLSLDVPIK[αMeL]K([γGlu-C16 diacid])Q[Aib]LLKQERQKKQREQAEKN[Aib]QILEQV-NH2
SMILES: CC[C@H](C)[C@H](NC(C)=O)C(=O)N[C@H](C(=O)N[C@@H](CC(C)C)C(=O)N[C@@H](CO)C(=O)N[C@@H](CC(C)C)C(=O)N[C@@H](CC(=O)O)C(=O)N[C@H](C(=O)N1CCC[C@H]1C(=O)N[C@H](C(=O)N[C@@H](CCCCN)C(=O)N[C@@](C)(CC(C)C)C(=O)N[C@@H](CCCCNC(=O)CC[C@H](NC(=O)CCCCCCCCCCCCCCC(=O)O)C(=O)O)C(=O)N[C@@H](CCC(N)=O)C(=O)NC(C)(C)C(=O)N[C@@H](CC(C)C)C(=O)N[C@@H](CC(C)C)C(=O)N[C@@H](CCCCN)C(=O)N[C@@H](CCC(N)=O)C(=O)N[C@@H](CCC(=O)O)C(=O)N[C@@H](CCCNC(=N)N)C(=O)N[C@@H](CCC(N)=O)C(=O)N[C@@H](CCCCN)C(=O)N[C@@H](CCCCN)C(=O)N[C@@H](CCC(N)=O)C(=O)N[C@@H](CCCNC(=N)N)C(=O)N[C@@H](CCC(=O)O)C(=O)N[C@@H](CCC(N)=O)C(=O)N[C@@H](C)C(=O)N[C@@H](CCC(=O)O)C(=O)N[C@@H](CCCCN)C(=O)N[C@@H](CC(N)=O)C(=O)NC(C)(C)C(=O)N[C@@H](CCC(N)=O)C(=O)N[C@H](C(=O)N[C@@H](CC(C)C)C(=O)N[C@@H](CCC(=O)O)C(=O)N[C@@H](CCC(N)=O)C(=O)N[C@H](C(N)=O)C(C)C)[C@@H](C)CC)[C@@H](C)CC)C(C)C)C(C)C
B4: SEQ ID NO 39 (peptide)
peptide: Ac-IVLSLDVPIKLK([γGlu-C16 diacid])KILLEQEKQKKQREQAETN[Aib]QILAQV-NH2
SMILES: CC[C@H](C)[C@H](NC(C)=O)C(=O)N[C@H](C(=O)N[C@@H](CC(C)C)C(=O)N[C@@H](CO)C(=O)N[C@@H](CC(C)C)C(=O)N[C@@H](CC(=O)O)C(=O)N[C@H](C(=O)N1CCC[C@H]1C(=O)N[C@H](C(=O)N[C@@H](CCCCN)C(=O)N[C@@H](CC(C)C)C(=O)N[C@@H](CCCCNC(=O)CC[C@H](NC(=O)CCCCCCCCCCCCCCC(=O)O)C(=O)O)C(=O)N[C@@H](CCCCN)C(=O)N[C@H](C(=O)N[C@@H](CC(C)C)C(=O)N[C@@H](CC(C)C)C(=O)N[C@@H](CCC(=O)O)C(=O)N[C@@H](CCC(N)=O)C(=O)N[C@@H](CCC(=O)O)C(=O)N[C@@H](CCCCN)C(=O)N[C@@H](CCC(N)=O)C(=O)N[C@@H](CCCCN)C(=O)N[C@@H](CCCCN)C(=O)N[C@@H](CCC(N)=O)C(=O)N[C@@H](CCCNC(=N)N)C(=O)N[C@@H](CCC(=O)O)C(=O)N[C@@H](CCC(N)=O)C(=O)N[C@@H](C)C(=O)N[C@@H](CCC(=O)O)C(=O)N[C@H](C(=O)N[C@@H](CC(N)=O)C(=O)NC(C)(C)C(=O)N[C@@H](CCC(N)=O)C(=O)N[C@H](C(=O)N[C@@H](CC(C)C)C(=O)N[C@@H](C)C(=O)N[C@@H](CCC(N)=O)C(=O)N[C@H](C(N)=O)C(C)C)[C@@H](C)CC)[C@@H](C)O)[C@@H](C)CC)[C@@H](C)CC)C(C)C)C(C)C
B5: SEQ ID NO 19 (peptide)
peptide: Ac-IVLSLDVPIK[αMeL]K([γGlu-C16 diacid])QILLKQERQKKQREQAEKN[Aib]QILEQV-NH2
SMILES: CC[C@H](C)[C@H](NC(C)=O)C(=O)N[C@H](C(=O)N[C@@H](CC(C)C)C(=O)N[C@@H](CO)C(=O)N[C@@H](CC(C)C)C(=O)N[C@@H](CC(=O)O)C(=O)N[C@H](C(=O)N1CCC[C@H]1C(=O)N[C@H](C(=O)N[C@@H](CCCCN)C(=O)N[C@@](C)(CC(C)C)C(=O)N[C@@H](CCCCNC(=O)CC[C@H](NC(=O)CCCCCCCCCCCCCCC(=O)O)C(=O)O)C(=O)N[C@@H](CCC(N)=O)C(=O)N[C@H](C(=O)N[C@@H](CC(C)C)C(=O)N[C@@H](CC(C)C)C(=O)N[C@@H](CCCCN)C(=O)N[C@@H](CCC(N)=O)C(=O)N[C@@H](CCC(=O)O)C(=O)N[C@@H](CCCNC(=N)N)C(=O)N[C@@H](CCC(N)=O)C(=O)N[C@@H](CCCCN)C(=O)N[C@@H](CCCCN)C(=O)N[C@@H](CCC(N)=O)C(=O)N[C@@H](CCCNC(=N)N)C(=O)N[C@@H](CCC(=O)O)C(=O)N[C@@H](CCC(N)=O)C(=O)N[C@@H](C)C(=O)N[C@@H](CCC(=O)O)C(=O)N[C@@H](CCCCN)C(=O)N[C@@H](CC(N)=O)C(=O)NC(C)(C)C(=O)N[C@@H](CCC(N)=O)C(=O)N[C@H](C(=O)N[C@@H](CC(C)C)C(=O)N[C@@H](CCC(=O)O)C(=O)N[C@@H](CCC(N)=O)C(=O)N[C@H](C(N)=O)C(C)C)[C@@H](C)CC)[C@@H](C)CC)[C@@H](C)CC)C(C)C)C(C)C
B6: SEQ ID NO 25 (peptide)
peptide: IVLSLDVPIKLK([AEEA-AEEA-γGlu-γGlu-C18 diacid])Q[Aib]LLKQERQKKQREQAEKN[Aib]QILEQV-NH2
modifications: N-terminus assumed
SMILES: CC[C@H](C)[C@H](N)C(=O)N[C@H](C(=O)N[C@@H](CC(C)C)C(=O)N[C@@H](CO)C(=O)N[C@@H](CC(C)C)C(=O)N[C@@H](CC(=O)O)C(=O)N[C@H](C(=O)N1CCC[C@H]1C(=O)N[C@H](C(=O)N[C@@H](CCCCN)C(=O)N[C@@H](CC(C)C)C(=O)N[C@@H](CCCCNC(=O)COCCOCCNC(=O)COCCOCCNC(=O)CC[C@H](NC(=O)CC[C@H](NC(=O)CCCCCCCCCCCCCCCCC(=O)O)C(=O)O)C(=O)O)C(=O)N[C@@H](CCC(N)=O)C(=O)NC(C)(C)C(=O)N[C@@H](CC(C)C)C(=O)N[C@@H](CC(C)C)C(=O)N[C@@H](CCCCN)C(=O)N[C@@H](CCC(N)=O)C(=O)N[C@@H](CCC(=O)O)C(=O)N[C@@H](CCCNC(=N)N)C(=O)N[C@@H](CCC(N)=O)C(=O)N[C@@H](CCCCN)C(=O)N[C@@H](CCCCN)C(=O)N[C@@H](CCC(N)=O)C(=O)N[C@@H](CCCNC(=N)N)C(=O)N[C@@H](CCC(=O)O)C(=O)N[C@@H](CCC(N)=O)C(=O)N[C@@H](C)C(=O)N[C@@H](CCC(=O)O)C(=O)N[C@@H](CCCCN)C(=O)N[C@@H](CC(N)=O)C(=O)NC(C)(C)C(=O)N[C@@H](CCC(N)=O)C(=O)N[C@H](C(=O)N[C@@H](CC(C)C)C(=O)N[C@@H](CCC(=O)O)C(=O)N[C@@H](CCC(N)=O)C(=O)N[C@H](C(N)=O)C(C)C)[C@@H](C)CC)[C@@H](C)CC)C(C)C)C(C)C

target: human corticotropin-releasing factor 2a (CRF2a receptor) (human), Q13324; assay: cell-based or functional assay
Sequence (Q13324 20-411): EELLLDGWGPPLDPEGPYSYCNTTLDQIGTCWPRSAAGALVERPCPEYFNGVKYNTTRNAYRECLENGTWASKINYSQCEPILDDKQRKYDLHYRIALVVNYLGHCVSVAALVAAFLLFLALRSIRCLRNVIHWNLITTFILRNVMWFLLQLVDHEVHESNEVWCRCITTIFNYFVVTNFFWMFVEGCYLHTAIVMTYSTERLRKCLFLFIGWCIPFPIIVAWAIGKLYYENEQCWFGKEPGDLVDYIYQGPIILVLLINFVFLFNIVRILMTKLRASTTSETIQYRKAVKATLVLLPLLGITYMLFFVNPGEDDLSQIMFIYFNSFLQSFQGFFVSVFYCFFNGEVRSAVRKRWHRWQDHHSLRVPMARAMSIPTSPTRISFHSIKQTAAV

Row | EC50 [nM] (cAMP) | Binder
1 | 18.6 | B1
2 | 3.17 | B2
3 | 1.09 | B3
4 | 0.53 | B4
5 | 0.28 | B5
6 | 5.02 | B6

target: T1, CRF1R receptor; assay: cell-based or functional assay

Row | EC50 [nM] | Emax (% I) [%] | Binder
7 | > 250 | 1 | B1
8 |  | 0 | B2
9 |  | 3 | B3
10 |  | 2 | B4
11 |  | 6 | B5
12 | > 250 | 6 | B6
